For experiment [1], the target named is MART-1 26-35 peptide (SEQ ID NO: 56) presented by HLA-A2 on cells (human). Nature of the experiment: cell-based or functional assay.
For experiment [2], the target named is MART-1 peptide on HLA-A*02:01 (human). Nature of the experiment: CD107a by flow cytometry; sorted TCR+ CD8- T cells incubated for 5 hours with peptide-loaded T2 cells. The result sentence names SEQ ID NO: 56, but the method says the cells were loaded with the analogue SEQ ID NO: 80.; full-length, on cells. A general note: A flow cytometer gives signals particle by particle.

The target of experiment [3] is TGFβRII frameshift peptide p573 (SEQ ID NO: 1) presented by HLA-A2 on cells (human). Nature of the experiment: cell-based or functional assay.

“MART-1-specific TCR DMF5 (on the surface of transduced T-cells)” displayed an EC50 of the peptide for CD107a staining of TCR+ CD8- T-cells after 5 hours with peptide-loaded HLA-A2+ T2 cells in experiment [1] of 7 nM. For DMF5, in experiment [2], the EC50 of peptide was 7 nM.

B1: Radium-1 TCR (full-length, on the surface of T-cells) (TCR, V domains shown)
V domain 1: GIQVEQSPPDLILQEGANSTLRCNFSDSVNNLQWFHQNPWGQLINLFYIPSGTKQNGRLSATTVATERYSLLYISSSQTTDSGVYFCAVNAGNMLTFGGGTRLMVKP
V domain 2: DVKVTQSSRYLVKRTGEKVFLECVQDMDHENMFWYRQDPGLGLRLIYFSYDVKMKEKGDIPEGYSVSREKKERFSLILESASTNQTSMYLCASSSGVTGELFFGEGSRLTVLE
In the case of B1, in experiment [3], the “EC50 of the peptide for CD107a staining of TCR+ CD8- T-cells after 5 hours with peptide-loaded HLA-A2+ T2 cells” value stood at 2 nM.

The record behind these values is US20190336529A1 (OSLO UNIVERSITETSSYKEHUS HF, published 2019).
